Source: paper PMC12045048

Molecular target: AMBRA1 (activating molecule in beclin-1-regulated autophagy), endogenous in MDA-MB-231 cells (UniProt Q9C0C7)
Experiment: anti-FLAG co-immunoprecipitation with proteomics (spectral counts)
Conditions: parent: 0

Sequence of UniProt Q9C0C7 (Q9C0C7 whole entry): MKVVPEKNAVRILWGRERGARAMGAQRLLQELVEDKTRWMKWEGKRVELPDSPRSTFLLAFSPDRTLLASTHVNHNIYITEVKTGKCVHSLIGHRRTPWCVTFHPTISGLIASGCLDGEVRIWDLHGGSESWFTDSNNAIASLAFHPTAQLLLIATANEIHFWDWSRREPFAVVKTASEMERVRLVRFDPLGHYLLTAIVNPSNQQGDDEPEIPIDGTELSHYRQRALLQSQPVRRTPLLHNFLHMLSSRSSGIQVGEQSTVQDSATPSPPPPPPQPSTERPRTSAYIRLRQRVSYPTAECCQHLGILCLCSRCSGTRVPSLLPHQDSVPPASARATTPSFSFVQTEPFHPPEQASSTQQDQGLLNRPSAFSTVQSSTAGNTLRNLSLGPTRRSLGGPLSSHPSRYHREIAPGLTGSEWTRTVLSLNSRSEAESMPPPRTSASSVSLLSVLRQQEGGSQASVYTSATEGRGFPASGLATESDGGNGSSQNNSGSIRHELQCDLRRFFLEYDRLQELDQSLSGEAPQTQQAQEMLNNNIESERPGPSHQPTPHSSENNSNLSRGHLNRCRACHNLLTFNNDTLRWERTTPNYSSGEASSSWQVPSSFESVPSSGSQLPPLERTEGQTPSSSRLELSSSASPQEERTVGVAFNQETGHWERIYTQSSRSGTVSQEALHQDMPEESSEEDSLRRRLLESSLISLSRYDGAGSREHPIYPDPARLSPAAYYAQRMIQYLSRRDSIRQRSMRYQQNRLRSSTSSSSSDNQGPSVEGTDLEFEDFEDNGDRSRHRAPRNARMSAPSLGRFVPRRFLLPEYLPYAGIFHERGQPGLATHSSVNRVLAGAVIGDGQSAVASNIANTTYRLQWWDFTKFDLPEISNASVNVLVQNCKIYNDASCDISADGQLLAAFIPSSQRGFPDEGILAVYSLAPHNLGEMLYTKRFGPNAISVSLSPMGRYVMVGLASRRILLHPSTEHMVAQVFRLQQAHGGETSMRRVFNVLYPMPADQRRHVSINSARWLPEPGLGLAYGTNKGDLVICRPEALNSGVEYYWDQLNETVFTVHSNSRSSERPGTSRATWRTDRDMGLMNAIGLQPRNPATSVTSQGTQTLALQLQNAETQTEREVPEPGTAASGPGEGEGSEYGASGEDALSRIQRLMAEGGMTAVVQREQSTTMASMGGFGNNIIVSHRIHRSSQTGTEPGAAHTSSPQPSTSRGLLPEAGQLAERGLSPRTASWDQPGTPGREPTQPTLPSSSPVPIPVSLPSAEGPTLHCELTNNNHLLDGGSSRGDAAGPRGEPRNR

other: Spectral Counts (spectral counts): 7
Substance: FLAG–Rab40c (wild type) in MDA-MB-231 cells (from UniProt Q96S21) 4A (211-LPLP-216 to 211-AAAA-216)
